The target in assay [1] is T1, mouse FcgRI (mouse, UniProt P26151 25-297).
T1 construct: Used as the soluble analyte in Biacore; also called mFcgRI
T1 sequence (looked up): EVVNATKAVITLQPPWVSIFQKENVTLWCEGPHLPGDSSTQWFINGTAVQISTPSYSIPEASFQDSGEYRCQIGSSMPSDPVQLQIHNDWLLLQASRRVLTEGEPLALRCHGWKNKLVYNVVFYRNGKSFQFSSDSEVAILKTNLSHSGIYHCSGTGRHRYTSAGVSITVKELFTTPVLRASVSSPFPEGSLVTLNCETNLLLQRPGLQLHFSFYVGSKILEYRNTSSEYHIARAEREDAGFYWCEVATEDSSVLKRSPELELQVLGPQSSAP
Description: SPR Biacore T200, antibody captured on Protein A/G, FcgR as analyte, 25 C. Here is the method:
(§1) Anti-mouse CTLA4 antibody hUH02hUL01-mFa55 and control antibody hUH02hUL01-mIgG2a (the heavy chain variable region UH02 is SEQ ID NO: 28, the light chain variable region UL01 is SEQ ID NO: 29, the heavy chain constant region mIgG2a is SEQ ID NO: 32, and the light chain constant region mk1 is SEQ ID NO: 31) purified and prepared by the method of Reference Example 2-1 were analyzed for their antigen-antibody reactions with various mouse FcgRs (mFcgRI, II, III, and IV) using Biacore T200 (GE Healthcare). The running buffer used was 20 mmol/L ACES, 150 mmol/L NaCl, 0.05% (w/v) Tween20 at pH7.4, and measurements were taken at 25° C. Protein A/G was immobilized onto a Sensor Chip CM7 by amine coupling. hUH02hUL01-mFa55 was captured onto the sensorchip, and then FcgR was allowed to interact as an analyte for 120 seconds, and change in the bound amount was observed. The running buffer was used for dilution of hUH02hUL01-mFa55. The measurement results were analyzed by curve fitting using the Biacore T200 Evaluation Software (GE Healthcare) to calculate the association rate constants ka (1/Ms) and the dissociation rate constants kd (l/s). From those values, the dissociation constants KD (M) were determined.

Assay [2] deals with T2, mouse FcgRII (mouse, UniProt P08101 30-210).
T2 construct: Used as the soluble analyte in Biacore; also called mFcgRII
T2 sequence (looked up): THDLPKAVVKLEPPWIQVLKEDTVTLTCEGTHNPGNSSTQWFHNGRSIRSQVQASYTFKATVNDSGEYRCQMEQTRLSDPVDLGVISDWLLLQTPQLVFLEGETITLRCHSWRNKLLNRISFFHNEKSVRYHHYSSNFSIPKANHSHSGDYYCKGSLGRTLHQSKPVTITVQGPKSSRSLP
Described as above. As to the method: as §1

Assay [3] addresses T3, mouse FcgRIII (mouse, UniProt P08508 31-215).
T3 construct: Used as the soluble analyte in Biacore; also called mFcgRIII
T3 sequence (looked up): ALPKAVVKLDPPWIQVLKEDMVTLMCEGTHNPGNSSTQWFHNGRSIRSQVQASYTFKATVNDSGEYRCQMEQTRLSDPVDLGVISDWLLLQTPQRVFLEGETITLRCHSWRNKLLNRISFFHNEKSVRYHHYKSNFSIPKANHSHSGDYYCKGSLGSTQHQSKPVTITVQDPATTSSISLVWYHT
The assay is described as above. As to the method: as §1

Assay [4] concerns the target T4, mouse FcgRIV (mouse, UniProt A0A0B4J1G0 21-203).
T4 construct: Used as the soluble analyte in Biacore; also called mFcgRIV
T4 sequence: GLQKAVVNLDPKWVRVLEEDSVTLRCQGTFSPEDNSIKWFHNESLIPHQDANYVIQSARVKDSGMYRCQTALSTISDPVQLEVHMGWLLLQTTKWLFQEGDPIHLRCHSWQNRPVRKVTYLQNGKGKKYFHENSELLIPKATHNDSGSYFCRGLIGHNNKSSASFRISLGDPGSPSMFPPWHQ
The description is as above. Here is the method:
as §1

Assay [5] concerns the target T5, mouse CD3 (mouse).
T5 chain: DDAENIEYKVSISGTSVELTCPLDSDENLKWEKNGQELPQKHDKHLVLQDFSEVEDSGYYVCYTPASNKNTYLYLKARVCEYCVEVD
Briefly: SPR Biacore T200, bispecific antibody captured on Protein A/G, antigen as analyte, 37 C. Here is the method:
(§2) Anti-mouse CTLA4/anti-mouse CD3 bispecific antibodies (hUH02UL01/2C11-F760) purified and prepared by the method of Reference Example 3-1 were analyzed for their antigen-antibody reactions with each antigen (mCTLA4 and mCD3) using Biacore T200 (GE Healthcare). The running buffer used was HBS-EP+ at pH7.4, and measurements were taken at 37° C. Protein A/G was immobilized onto a Sensor Chip CM4 by amine coupling. hUH02UL01/2C11-F760 was captured onto the sensor chip, and then the antigen (mouse CTLA4 or mouse CD3) was allowed to interact as an analyte (for 120 seconds for mouse CTLA4 and for 90 seconds for mouse CD3), and changes in the bound amount were observed. The running buffer was used for dilution of hUH02UL01/2C11-F760. The measurement results were analyzed by curve fitting using the Biacore T200 Evaluation Software (GE Healthcare) to calculate the association rate constants ka (1/Ms) and the dissociation rate constants kd (l/s). From those values, the dissociation constants KD (M) were determined.

Assay [6] deals with T6, mouse CTLA4 (mouse, UniProt P09793 36-161, limits assumed).
T6 construct: Soluble antigen used as the analyte in Biacore; also called mCTLA4
The assay is described as above. As to the method: as §2

Positions count from the first letter of the chain named.

B1: control antibody hUH02hUL01-mIgG2a (antibody)
heavy: QVQLQESGPGLVKPSETLSLTCTVSGYSISSGYGWNWIRQPPGKGLEWIGFIYYEGSTYYNPSIKSRISITRDTSKNQFFLQVNSVTTEDTATYYCARQTGYFDYWGQGTLVTVSSAKTTAPSVYPLAPVCGDTTGSSVTLGCLVKGYFPEPVTLTWNSGSLSSGVHTFPAVLQSDLYTLSSSVTVTSSTWPSQSITCNVAHPASSTKVDKKIEPRGPTIKPCPPCKCPAPNLLGGPSVFIFPPKIKDVLMISLSPIVTCVVVDVSEDDPDVQISWFVNNVEVHTAQTQTHREDYNSTLRVVSALPIQHQDWMSGKEFKCKVNNKDLPAPIERTISKPKGSVRAPQVYVLPPPEEEMTKKQVTLTCMVTDFMPEDIYVEWTNNGKTELNYKNTEPVLDSDGSYFMYSKLRVEKKNWVERNSYSCSVVHEGLHNHHTTKSFSRTPGK
light: DIVMTQSPDSLAVSLGERATINCKSSQSLFNSNAKTNYLNWYQQKPGQPPKLLIYYASTRHTGVPDRFSGSGSGTDFTLTISSLQAEDVAVYYCQQWYDYPYTFGAGTKVEIKRADAAPTVSIFPPSSEQLTSGGASVVCFLNNFYPKDINVKWKIDGSERQNGVLNSWTDQDSKDSTYSMSSTLTLTKDEYERHNSYTCEATHKTSTSPIVKSFNRNEC
notes: Same variable regions as hUH02hUL01-mFa55, with an unmodified mouse IgG2a constant region
With B1, the Kd in assay [1] came out at 6.1 nM; in assay [2], 780 nM; in assay [3], 250 nM; in assay [4] it was 13 nM. Moreover, the koff in assay [1] was 0.0047 s⁻¹; in assay [2] it was 1.1 s⁻¹; in assay [3] it was 0.51 s⁻¹; in assay [4] it was 0.016 s⁻¹. Besides, the kon in assay [1] was 780000 M⁻¹ s⁻¹; in assay [2], 1.3e+06 M⁻¹ s⁻¹; in assay [3], 2e+06 M⁻¹ s⁻¹; in assay [4], 1.2e+06 M⁻¹ s⁻¹.

B2: anti-mouse CTLA4 antibody hUH02hUL01-mFa55 (antibody, mouse IgG2a, kappa)
heavy: B1 heavy with S238D
light: B1 light
notes: Mouse IgG2a/kappa format; also called hUH02UL01-mFa55; ADCC-enhanced antibody
As for B2, the Kd came out at 2.5 nM in assay [1], 370 nM in assay [2], 260 nM in assay [3] and 1.9 nM in assay [4]. In addition, the koff was 0.0031 s⁻¹ in assay [1], 0.76 s⁻¹ in assay [2], 0.62 s⁻¹ in assay [3] and 0.0028 s⁻¹ in assay [4]. In addition, the kon in assay [1] came to 1.2e+06 M⁻¹ s⁻¹; in assay [2], 2.1e+06 M⁻¹ s⁻¹; in assay [3] it was 2.4e+06 M⁻¹ s⁻¹; in assay [4], 1.5e+06 M⁻¹ s⁻¹.

B3: anti-mouse CTLA4/anti-mouse CD3 bispecific antibody (hUH02UL01/2C11-F760) (bispecific antibody, human IgG1, kappa, N297A)
heavy 1: QVQLQESGPGLVKPSETLSLTCTVSGYSISSGYGWNWIRQPPGKGLEWIGFIYYEGSTYYNPSIKSRISITRDTSKNQFFLQVNSVTTEDTATYYCARQTGYFDYWGQGTLVTVSSASTKGPSVFPLAPSSKSTSGGTAALGCLVKDYFPEPVTVSWNSGALTSGVHTFPAVLQSSGLYSLSSVVTVPSSSLGTQTYICNVNHKPSNTKVDKKVEPKSCDKTHTCPPCPAPELRGGPKVFLFPPKPKDTLMISRTPEVTCVVVDVSHEDPEVKFNWYVDGVEVHNAKTKPREEQYASTYRVVSVLTVLHQDWLNGKEYKCKVSNKALPAPIEKTISKAKGQPREPQVYTLPPSRDELTKNQVSLTCLVKGFYPSDIAVEWESNGQPENNYKTTPPYLDSDGSFFLYSKLTVDKSRWQQGNVFSCSVMHEALHNHYTQESLSLSP
light 1: not shown
heavy 2: EVQLVESGGGLVQPGKSLKLSCEASGFTFSGYGMHWVRQAPGRGLESVAYITSSSINIKYADAVKGRFTVSRDNAKNLLFLQMNILKSEDTAMYYCARFDWDKNYWGQGTMVTVSSASTKGPSVFPLAPSSKSTSGGTAALGCLVKDYFPEPVTVSWNSGALTSGVHTFPAVLQSSGLYSLSSVVTVPSSSLGTQTYICNVNHKPSNTKVDKKVEPKSCDKTHTCPPCPAPELRGGPKVFLFPPKPKDTLMISRTPEVTCVVVDVSHEDPEVKFNWYVDGVEVHNAKTKPREEQYASTYRVVSVLTVLHQDWLNGKEYKCKVSNKALPAPIEKTISKAKGQPREPQVYTLPPSRKELTKNQVSLTCLVKGFYPSDIAVEWESNGQPENNYKTTPPYLDSDGSFFLYSKLTVDKSRWQQGNVFSCSVMHEALHNHYTQKSLSLSP
light 2: DIQMTQSPSSLPASLGDRVTINCQASQDISNYLNWYQQKPGKAPKLLIYYTNKLADGVPSRFSGSGSGRDSSFTISSLESEDIGSYYCQQYYNYPWTFGPGTKLEIKRTVAAPSVFIFPPSDEQLKSGTASVVCLLNNFYPREAKVQWKVDNALQSGNSQESVTEQDSKDSTYSLSSTLTLSKADYEKHKVYACEVTHQGLSSPVTKSFNRGEC
notes: also called T cell-redirecting antibody
In assay [5], B3 yielded a Kd of 1160 nM, a koff of 0.0712 s⁻¹ and a kon of 61600 M⁻¹ s⁻¹. In assay [6], this molecule came in with a Kd of 1.23 nM, an off-rate (koff) of 0.00053 s⁻¹ and a kon of 430000 M⁻¹ s⁻¹.

For the origin of these results see patent US20180326058A1 (Chugai, published 2018).
